# Reference: US20030145347
# Key:
# [1] = tested on: rice thioredoxin with S-tag (recombinant, expressed in E. coli from pNOV4113)
# [2] = tested on: soybean thioredoxin prep without S-tag (recombinant, expressed in E. coli from pNOV4112, S-Tag removed by thrombin cleavage)
# [3] = tested on: soybean thioredoxin with S-tag (recombinant, expressed in E. coli from pNOV4112)
Substance,reduction of thioredoxin in vitro [1],"reduction of thioredoxin, DTNB assay [1]","reduction of thioredoxin, DTNB assay [2]","reduction of thioredoxin, DTNB assay [3]","OD 650 nm (after 31 minutes), insulin reduction assay, thioredoxin 4 ug as printed in the row (insulin) [OD 650 nm]","OD 650 nm (after 31 minutes), insulin reduction assay, thioredoxin 5 ug as printed in the row (insulin) [OD 650 nm]","OD 650 nm (after 31 minutes), insulin reduction assay, thioredoxin 6 ug as printed in the row (insulin) [OD 650 nm]","OD 650 nm (after 31 minutes), insulin reduction assay, thioredoxin 7 ug as printed in the row (insulin) [OD 650 nm]","Rate of Precipitation (change of A650/min), insulin reduction assay, thioredoxin 4 ug as printed in the row (insulin) [A650/min]","Rate of Precipitation (change of A650/min), insulin reduction assay, thioredoxin 5 ug as printed in the row (insulin) [A650/min]","Rate of Precipitation (change of A650/min), insulin reduction assay, thioredoxin 6 ug as printed in the row (insulin) [A650/min]","Rate of Precipitation (change of A650/min), insulin reduction assay, thioredoxin 7 ug as printed in the row (insulin) [A650/min]"
"Arabidopsis NADPH thioredoxin reductase without S-tag (recombinant, expressed in E. coli from pNOV4115)",Arabidopsis thioredoxin reductase is found to be active in reducing rice thioredoxin in vitro,can also reduce rice thioredoxin,can reduce soybean thioredoxin with and without the S-tag,can reduce soybean thioredoxin with and without the S-tag,–,–,–,–,–,–,–,–
"soybean thioredoxin prep without S-tag (recombinant, expressed in E. coli from pNOV4112, S-Tag removed by thrombin cleavage)",–,–,–,–,0.001,0.0077,0.0084,0.0117,3.2e-05,0.00025,0.00027,0.00038
